Results as given in publication PMC10120002 (Proceedings of the National Academy of Sciences of the …, 2023).

What was measured:
[1] = biological target: Cdk5 protein alone (recombinant) (UniProt Q00535 1-292); test: MST
[2] = biological target: T1, recombinant Cdk5/p25 complex (UniProt Q00535 1-292; Q15078 99-307); test: MST
[3] = biological target: T1, recombinant Cdk5/p25 complex; test: BLI

B1: Cdk5i peptide (peptide)
peptide: ARAFGIPVRCYS
B1 gave a Kd [1] of 15700 nM, a Kd [2] of 170 nM and a Kd [3] of 220 nM.
